The text below walks through data of doi:10.1101/2025.06.24.661301, “Homodimerized Arpins: Binding to Arp2/3 Complexes with Positive Synergy to Inhibit Lamellipodia-Dependent Tumor Metastasis” (bioRxiv, 2025).

No end group written: not given here.

Broadly, the Kd is the equilibrium constant for the complex coming apart. The low end stands for a tighter complex, the high end for a looser complex.

This test deals with Arp2/3 complex (human, UniProt P61158 1-418; P61160 1-394; O15143 1-372). Description: SPR; Biacore 8K, 25°C, PBS with 0.05% Tween-20; Arp2/3 immobilised on CM5 chip; analytes injected at 30 μL/min, 60 s association, 60 s dissociation; Arpin^FM 3.125-200 μM, ArpinCT, GST-aCT and D-aCT 0.625-40 μM, AI-designed variants 0.156-10 μM. Conditions: both partners purified. For orientation: In SPR one partner is held on a chip, and binding of the other changes the refractive index at the surface.

B1: D-aCT (dual-tailed peptide of two Arpin CTs linked at their N-termini by BM(PEG)3) (peptide)
chain: CSSGGSSGGSSGGSSGGGASWTDNIMAQKSSKGAAAEIREQGDGAEDEEWDD
modifications: not fully specified (residue 1); also: dimer: N-terminal Cys linked to N-terminal Cys of second chain by BM(PEG)3
As to B1, the affinity, expressed as Kd, was 5.5 µM.
